Assay results taken from article doi:10.1101/2023.03.13.532365.

Target: *DsCDTCM, exported bifunctional cyclohexadienyl dehydratase-chorismate mutase fusion enzyme of Duganella sacchari (Duganella sacchari)
Assay: crystal structure

*DsCDTCM, exported bifunctional cyclohexadienyl dehydratase-chorismate mutase fusion enzyme of Duganella sacchari
stoichiometry N: 2
